This is an account of results in the DeepSol protein solubility set.

This data set in a line: soluble on expression in E. coli; label from the status in PepcDB or PDB records.
For the sequence “MGSDKIHHHHHHMTGIPTHKAVQQSDFGIFAKEVSPFSPNRTINYVHRDDYYILGVVKSGTCHVSIDFKEYVFSAGDVVCTQPNQVHHIIDTGNADVLLLFIDGVFIDTPTKQIIAEYVLSPVPFKINDIQYTDLGQLFSMILRRMNGGNPDCKSKAVIQNLSCAIVGIITDNIQKYIGQNHKNRRHIEITLALKALFSEEKQLNRSVSYYAEALHISPVYLNEVVKNVTGESVSKYIQNELILRAKRMLVYTSLNVREISIDLGIEDYAYFTRLFTKAVGVNPTSYRKKYLE”, the “soluble on expression in E. coli” value was “not soluble”.

As for “REQGFMFKKELGIESMEDLIEKIRYYKIINRNKGSGTRILFDKFLKENDIDKNSINGYDIEAKTHSAVGAAVSMGKAQIGLGISTISDHYDLEFIPIADENYDLLIPKEKLYDEDIIKFIETLKNEELPFKKSKDTGKIIYGC”, the “soluble on expression in E. coli” value was “not soluble”.

As for “MGSDKIHHHHHHMPGASPWRALVGGVKGQPQGTGMDRIGPAERPILSEGAKRVTADLLQTINTIYDCVGDELDHHRCLAAIGEAVDGTSLSVGEVFPFFGRIRLIANYCVPEDAARIMVDSFSTIESNSFMKNLPRFPEGVPFMRRTFVSDEEHYQSDIYKLASEPWGLHSEGATIFSKSIVSAKFCGFFRLPGKAELDIHDLSKLAILNGHYMKAMKFQDRISGLETALLRANNVLDLLDFGLLLFGDQKSPLYVNQAAHRILEKSDVMSLGRDGLIFSSSKSQNHYEKIFSSVVGSRSSPTKGTGGLVQVSPASFRRPYNVVVQPISSHQTGVADATIGVLIFDPNAKRTTAIELFSTSYGLTKKETQLALHLAEGLSVDEYAKSHNVSINTVRTHVRSIYEKTNTTRQPELVSLILRLTAGLNWT”, the “soluble on expression in E. coli” value is on record as “not soluble”.

“MGSDKIHHHHHHMESYKGNKTTRKQIVSSIQMDIIKNRKIGEKLPSESEYANLFGTARSTVQKALRDLETMQLIEKVQGKGSFVIFKHPKIEMFNFRGFSEYAHQIGATPITKLIKKKKIDNGHKMLLKRLRSIKINDEIAPLTFDESILSLDDFPGLDQYNFEKGSLYDVLRNKYNTYPAIANLEVIPVAPEEEISNLLRVSKGNPLLKVNGFVYDSNSEIMEKVGIIYSDQARFKFTLGI”: the “soluble on expression in E. coli” value is given as “not soluble”.

With “MGSDKIHHHHHHMAQDIRVFKSKRDIETAVIQLILEEDFSKLTIQQICQKALVSRSTFYSHYLDKYDVVEQLVAKTITQLETIFSQKYQSQVSPENLKDYLADIYQFYQENARLLKALLKTPLTGTGNFEEAFSKLCQTYINHLAATTKDNDHLPPQLLAEIFTANVVTLMKWIIEHGPSENVTHFADWLHDLFLQYLQE”, the “soluble on expression in E. coli” value is “not soluble”.

With “MDAWFEDTAMGRYVAKLEQDFFGRYLDSYRFSGMCAVQVGGPWLSLSEDVVCVPRDMSMSAENMALADVSADMLLFPHTLEGGVPSQILSEAHRILKPCGRLMLTGFNPYSLWGFSRWFDGERLPEKRFCLPLPELKRRLADVGFDIEFGKFMVYLPPVSSLGQIRFWRFMEKAGDRWWPQCAAVYGLVLVKRAAGVTPLPAWDGYLGGKALAAGAARVAD”, the “soluble on expression in E. coli” value is on record as “not soluble”.

Turning to “KKSPSAGSGSNGGNKKISQEEGEDNGGEDNKKLRGALSSAILSEKPNVKWEDVAGLEGAKEALKEAVILPVKFPHLFKGNRKPTSGILLYGPPGTGKSYLAKAVATEANSTFFSVSSSDLVSKWMGESEKLVKQLFAMARENKPSIIFIDQVDALTGTRGEGESEASRRIKTELLVQMNGVGNDSQGVLVLGATNIPWQLDSAIRRRFERRIYIPLPDLAARTTMFEINVGDTPSVLTKEDYRTLGAMTEGYSGSDIAVVVKDALMQPIRKIQSATHFKDVSTEDDETRKLTPSSPGDDGAIEMSWTDIEADELKEPDLTIKDFLKAIKSTRPTVNEDDLLKQEQFTRDFGQEGN”, the “soluble on expression in E. coli” value is “soluble”.

Take “MGSDKIHHHHHHMPLSIITNTFAGNPLDRDSERRGDEAFLAEKLADPESLAVALWNGKPLVEDILGEDGKPTGVQIAYLRADMAQDLAGGSEKLLYMGLWKDIAVFAVDIEGAADPAEGPLQGLGRFEELRGAAASMPPADAGILATAKSMFEWRRRHRWCSACGQKTEVSDGGWKRVCPSCEAEHFPRTDPVAIMLAIHDGKCLLGRQAMWPQGMFSALAGFIEPGETIEEACARELQEEAGLKATAVRYHSSQPWPWPSSLMMGLIAEVDSDEAAPDQTELEEVRWFTREEALQLIRGELDGLFAPPPLAIAHQLIKAWAEEA”: the “soluble on expression in E. coli” value is recorded as “not soluble”.

On to “MGSDKIHHHHHHMSFSMLRAALVLGSIGCAFSPQVNAKLNPLTVQIQPLAQSKLLLDLANAGDQLIAVGQRGHVLVYDKSWIQVPTPVLSQLTKVFFLDAKLGWAVGHDASIIHTQDGGQTWQLQMQSREIEKPFLDIRFFNANEGIAIGAYGLFYRTLDGGKTWEPEFHEELLFEEDVSYLAELKAEDEALYLSERAALLPHFNRIIRLNDSRLLLVGELGLVAESKDNGKHFTRTDFDYDGSMFNAIQVGEQIYVMGLRGHVFKTDLSLSDWQQVELPVKSSINGALVHKGELYIVGNAGVVLRLDGKGHAEIVARRQGENIVAVAESADKQLWFAGSNGLFQLK”, for which the “soluble on expression in E. coli” value was “not soluble”.

With “MGSDKIHHHHHHMNDQKNAAQVGLGLRREMLSEFCESVPEAINFFEVAPENWMTLGGKFGRQFRELTEQHTFYCHGLSLSIGSPEPLDLAFVKNIKTFMDLHQIQIYSEHLSYCSGQGHLYDLMPIPFTDAAVKHVAARVKQVEDILERPLILENVSFYAAPGARMSELEFVNAVLQEADCKLLLDVNNIYVNSINHQYDADTFLQAMPTERIAYLHIAGHYKQAEDLLIDTHGAAINDPVWALLQRCYALHGVKPTLLERDFNVPTTAELLLELNQIHAYQAAAPSSHIQNSAHVVKRIA”, the “soluble on expression in E. coli” value is “not soluble”.

With “VRQLDSDGFAALMESIPHAISVHDRERNLVFSNPACAALIGYDTAEFADLEHEQLFHPDDAELWGTMLARVLGTESTSATAHLRIRHREGHWIWVRVAASTFTAGAERLVALVLQDESDTIWGNPTAARQPIR”, the “soluble on expression in E. coli” value is “not soluble”.

For the sequence “MCENEEYRERFPDKHFDLETVLQAKVRPICVVPERTFIGFFHREKSKEEEEKEDVSLDFLKGVMSFDSIWEEIMKQEPEESASEHVIYIVSWNDHYFVLLVNHDAYYIIDTLGERVYEGCNQAYVLKFDQDAEIKRLPSVIKDNKADMGSQKQGGKNKYEQPERSKESEEQGEEVVVCRGKESCREYIKSFLAAIPIQQVKADMKEGLVSSFHHRLQIELYYTKHLHHRQPNMFESSTTKVTVSEATVSMTVAWLLASQFSNSGGFGCEMAELLGIKV”, the “soluble on expression in E. coli” value is recorded as “soluble”.

As for “MEYKSTRHAKYLCNYHFVWIPKYRRKVLTGEVAEYTKEVLRTIAEELGCEVLALEVMPDHIHLFVNCPPRYAPSYLANYFKGKSARLILKKFQELKKSTNGKLWTRSYFVSTSGNVSSETIKKYIEEQWAKENEED”, the “soluble on expression in E. coli” value is recorded as “soluble”.

As to “MGSDKIHHHHHHMKIVYCIAGTYNSGGMERVLANKANYLVSHGYEVVIITTDQREKQSFFELDQRINCCDLRINYEENNGKSFLNKLANYPFKQWKHRKRLTACLKQLKADIVVSMFCNDASFLWKIDDGSKKVLEIHFSRYKRLQYGRKGVWKIADRWRSRMDERTVRKYDRFVVLTAEDKAYWGNLSNMIVIPNALSHSTTELHLSPLTARKVIAIGRYGYQKGFDYLIEAWEIIHCAQPAWTLDIIGDGEWTDRLQRQIKRKRLNHCVFLKPPTGQIEEEYRQASLLVLSSRYEGLPMVLLEAQSFGLPIVSFACKCGPGDVITDGKNGFLVSVGNLPMLADRIMRLMEDEGLRKRMGMNAYHNSKTFSEERIMQCWIDMFDKLVSQR”, the “soluble on expression in E. coli” value was “not soluble”.

“MVHHKLKNDPSGHDWFHIVRVRNLAVELAHKEGANTFICQMAALLHDIIDDKICQDSKQASYELTQWLYSQDLAIAEVEHILDILENISFKAGTGLTMKTLEGQIVQDADRLDAMGAIGIARTMAYSGSKGRLIHDPNLKPRENLTLEEYRNGQDTAIIHFYEKLLKLKDLMNTKQGKMLAQKRHDFLELYLAEFYAEWNGKRLEHHHHHH”: the “soluble on expression in E. coli” value is listed as “not soluble”.

As for “MKAQEVPSTTFTGGETVLTFKGGVHPPELKEWSKDKPIERAPLPQKVFVFLSNHAGNPAKPVVSPGDEVKTGQVIGEPEGFISAYLHSPVTGRVLEIKKILHPILGKPIEAIVIERTSDDEWVHIETGDFERMSKEEILEIIKKAGIVGLGGAMFPTHVKLSPPPEKKVDTLIVNGAECEPVLTIDHRLMLERAEDILQGILIMMKVLGVQKAVVGVESNKMDAYHNLKKVFKGYPVDVALLRTKYPQGAEKQLIYAITGRMVPRGGLPMDVGVVVQNVGTCVAVKEAVVDGKPLVERGMTVSGDAVKNQKNLIVRIGTPVKDVIDYCGGIDENTERVILGGPMMGISITNLDIPVMKGTSGITAFLPKKSRPQKPCIRCSECVQVCPMNLQPYLLYLLSTKRKYDEAVENGLMDCIECGSCTYTCPSKIEHVRYIKLAKTVYRATRRGRRAAALEHHHHHH”, the “soluble on expression in E. coli” value was “soluble”.

As to “MGSDKIHHHHHHMPRSARIDIPNLLQHVIVRGIERRDIFLSDDDRWDFRNRLQKLLLEMDVDCLAWSLMSNHFHLLLRPTRTPLAPFMRRLLTGYAVSFNLRHNRSGHLFQNRYKSIVCDEDSYLLELVRYIHLNPLRAGIVADLGALDTFPWSGHAMLMGKIVLEGQGINEVLRYFGPGVSASRRTYREFMADGVLQGERPDLVGKRSGASGGGCPASDRRILGDENFVEQLKTEECLHQQLRRPMSIESIVATIADQYGVAPKAIASKSRLPRTLDARAVVCYTAVEEGHTGAEVGRVLGMTRSGVAIARRRGEEVLARIESTAEFQHDTRLDSTN”, the “soluble on expression in E. coli” value was “not soluble”.

As for “SREPVDILREQKINAEWALKQQSDKLAAQFDNMDDAYLRERKQDMLQVVRRIHNNLIGQGNELEVADNLFDETVLIANDLSPADTVLFKEQR”, the “soluble on expression in E. coli” value was “not soluble”.

With “MLLPEPTTLRHVLIDGTIPQVATDEALIKDFGHPYEYAFNRTPQGYQVRWNTPKGVYILDAVVAAHIDPDDQWYWHQQFAFAIPELAEGPHHSSEELLTAARTLNGNGPAYLVPTEDGHTDVIVATPSFPQLPLAHALTLGLGQARNNNLTDDEIRRAIIAFAAQNDYSVAEDGLILCVRSDNGEQAHVDIARLKVRDLQSTTPQLRLTDVLADATFVAAEHQLLLNGRFPDARATTNDDCSVVTLTTPTGQTLRARALLIATLRGETLQWSWADPAVCDLPGAKAALGVKNFAIDNGLGMLLGQVDAATALSQRLYDAAKPVSRFWTDVRVPLSDGSTAIMLVDASELRLPPPSHAAVFATLHETVPHGRDIRRALSYYGAFRRITIDDVDYRRVRVHAPSAPIQVSMDACGRVCSIV”, the “soluble on expression in E. coli” value is on record as “not soluble”.

Consider “MKAMHVAQPAVVLASSRGIASFVCEYASPGKATEVRVTVLRQADSQVTEVCAATYMMGNELTFLDDSICTGTSSGNQVNLTIQGLRAMDTGLYICKVELMYPPPYYLGIGNGTQIYVIDPEPSPDSDLVPR”, for which the “soluble on expression in E. coli” value was “soluble”.

Regarding “QSILQDLFLLLIKFPKEEKTVEVFDTSPKIQLSNYEQYRQDALLAKAEGEQNKINTVLSYTEKTLAPYVVESELSNLCTQISHFLSSDWKEEECREIKISSQLKSIDLMHFGWNIAQPFGKSRKEISTFLKYTFAHALEDVEVSTLQRKLTNTEGKFLIPLQEKLSTESYSSS”, the “soluble on expression in E. coli” value is “not soluble”.

Take “GSLDALGSQPIHLWQFLKELLLKPHSYGRFIRWLNKEKGIFKIEDSAQVARLWGIRKNRPAMNYDKLSRSIRQYYKKGIIRKPDISQRLVYQFVHPI”: the “soluble on expression in E. coli” value was “soluble”.
